Source: article PMC8809517, “Cofactor-independent RNA editing by a synthetic S-type PPR protein”

T1: GFP-9S library array, motif 4 ND N98Y;D124K (synthetic construct, N98Y;D124K)
T1 chain: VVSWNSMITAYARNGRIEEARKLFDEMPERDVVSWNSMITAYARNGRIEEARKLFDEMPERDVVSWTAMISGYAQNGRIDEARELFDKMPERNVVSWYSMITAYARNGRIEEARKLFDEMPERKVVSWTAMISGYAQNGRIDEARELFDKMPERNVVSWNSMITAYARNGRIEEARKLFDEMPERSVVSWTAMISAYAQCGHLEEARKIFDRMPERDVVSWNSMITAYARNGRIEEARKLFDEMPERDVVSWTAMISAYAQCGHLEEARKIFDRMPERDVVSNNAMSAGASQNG

T2: GFP-9S library array, motif 4 ND N98G;D124R (synthetic construct, N98G;D124R)
T2 chain: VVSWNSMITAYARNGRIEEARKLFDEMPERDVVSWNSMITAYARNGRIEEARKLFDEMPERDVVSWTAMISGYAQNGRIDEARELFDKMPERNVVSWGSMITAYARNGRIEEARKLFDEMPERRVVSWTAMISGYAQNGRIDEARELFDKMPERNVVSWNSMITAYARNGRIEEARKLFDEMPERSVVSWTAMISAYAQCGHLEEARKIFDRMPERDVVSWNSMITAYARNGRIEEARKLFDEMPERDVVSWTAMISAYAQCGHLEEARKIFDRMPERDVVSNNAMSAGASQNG

T3: GFP-9S library array, motif 4 ND N98F;D124N (synthetic construct, N98F;D124N)
T3 chain: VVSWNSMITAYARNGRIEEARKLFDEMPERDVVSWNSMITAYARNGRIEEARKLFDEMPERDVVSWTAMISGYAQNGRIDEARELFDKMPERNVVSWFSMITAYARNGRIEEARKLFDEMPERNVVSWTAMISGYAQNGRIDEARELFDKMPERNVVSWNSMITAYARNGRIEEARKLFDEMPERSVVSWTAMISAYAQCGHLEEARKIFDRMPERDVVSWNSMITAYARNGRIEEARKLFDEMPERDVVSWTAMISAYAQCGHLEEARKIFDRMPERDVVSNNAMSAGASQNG

T4: GFP-9S library array, motif 4 ND N98G;D124V (synthetic construct, N98G;D124V)
T4 chain: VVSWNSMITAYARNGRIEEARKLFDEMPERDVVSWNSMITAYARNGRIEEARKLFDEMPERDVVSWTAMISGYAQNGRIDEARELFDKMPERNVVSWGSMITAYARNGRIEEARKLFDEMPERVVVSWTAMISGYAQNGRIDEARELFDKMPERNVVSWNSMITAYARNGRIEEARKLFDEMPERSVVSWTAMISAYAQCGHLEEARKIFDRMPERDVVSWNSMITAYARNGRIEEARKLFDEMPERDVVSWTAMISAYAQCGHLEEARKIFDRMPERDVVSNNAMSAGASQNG

T5: GFP-9S library array, motif 4 ND N98H (synthetic construct, N98H)
T5 chain: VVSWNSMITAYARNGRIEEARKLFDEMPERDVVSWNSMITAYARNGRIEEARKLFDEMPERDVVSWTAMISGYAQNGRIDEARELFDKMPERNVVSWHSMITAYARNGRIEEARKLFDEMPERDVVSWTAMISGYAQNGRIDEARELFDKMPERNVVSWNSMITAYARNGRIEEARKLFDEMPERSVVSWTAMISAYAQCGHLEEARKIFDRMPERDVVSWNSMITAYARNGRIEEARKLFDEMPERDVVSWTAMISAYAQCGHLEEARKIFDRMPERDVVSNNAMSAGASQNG


Experiments:
Experiment in all cases: high-throughput RNA pulldown from lysate on Ni-NTA beads; HRP: 50 mM Tris pH 8, 150 mM NaCl, 1 mM beta-mercaptoethanol, 50 ug/ml BSA, 3 ug/ml yeast RNA, 0.5% heparin; ITC and FP: Tris pH 8, 200 mM KCl, 5% glycerol; MST: 50 mM Tris pH 8, 200 mM NaCl, 1 mM DTT, BSA, heparin, 0.05% Tween 20
Conditions in all cases: tags: N-terminal His-eGFP
[1] = biological target: T1, GFP-9S library array, motif 4 ND …
[2] = biological target: T2, GFP-9S library array, motif 4 ND …
[3] = biological target: T3, GFP-9S library array, motif 4 ND …
[4] = biological target: T4, GFP-9S library array, motif 4 ND …
[5] = biological target: T5, GFP-9S library array, motif 4 ND N98H

Row | Binder | Kd ([1]; label: 5' Cy5) [nM] | Kd ([2]; label: 5' Cy5) [nM] | Kd ([3]; label: 5' Cy5) [nM] | Kd ([4]; label: 5' Cy5) [nM] | Kd ([5]; label: 5' Cy5) [nM] | Kd ([1]; label: 5' IRDye 800CW) [nM] | Kd ([2]; label: 5' IRDye 800CW) [nM] | Kd ([3]; label: 5' IRDye 800CW) [nM] | Kd ([4]; label: 5' IRDye 800CW) [nM] | Kd ([5]; label: 5' IRDye 800CW) [nM]
1 | AUUACACGUGA (ssRNA) [Cy5-rpoA] | 93.3 | 100 | 81.4 | 119 | 144 | – | – | – | – | –
2 | AUUAAACGUGA (ssRNA) [IR-rpoA-A] | – | – | – | – | – | 207 | 158 | 196 | 313 | 465
3 | AUUAGACGUGA (ssRNA) [Cy5-rpoA-G] | 97 | 115 | 101 | 118 | 26.5 | – | – | – | – | –
4 | AUUAUACGUGA (ssRNA) [IR-rpoA-U] | – | – | – | – | – | 227 | 116 | 112 | 234 | 65.7
